Measured values as given in patent publication US20150265679A1, “METHOD OF REDUCING ADVERSE EFFECTS IN A CANCER PATIENT UNDREGOING TREATMENT WITH A MEK INHIBITOR” (THE UNITED STATES OF AMERICA, as represented by THE …, priority 2013, published 2015).

What was measured:
hfRPE monolayers [1] = assay: Transepithelial fluid transport (JV) across hfRPE monolayers, capacitance probe technique; assay type: cell-based, human; conditions: for normal fluid absorption after MEK inhibitor: IFN-γ (15 ng/ml, FIG. 10B) to basal bath after 72 hours 10 μM plus acute 100 μM MEK inhibitor; for rescue of apical MEK inhibitor-induced reduction in fluid absorption: basolateral IFN-γ (10 ng/ml, FIGS. 11A, 11B) after acute apical MEK inhibitor
Description: Confluent monolayers of hfRPE cultured on transwells were mounted in an electrophysiological chamber and transepithelial water flow (JV) measurements were made with a capacitance probe technique as described previously in Maminishkis 2006; Shi, G., et al., Invest Ophthalmol Vis Sci, 2008, 49, 4620-4630; Edelman, J. L., et al., Invest Ophthalmol Vis Sci, 1991, 32, 3033-3040; Jiang, C., et al., Science, 1993, 262, 424-427; and Maminishkis, A., et al., Invest Ophthalmol Vis Sci, 2002, 43, 3555-3566, each incorporated herein by reference in its entirety. In brief, the RPE is mounted in a water-jacketed ? ssing chamber and oriented vertically with the apical and basolateral membranes separately exposed to Ringer's solution held in bathing reservoirs. Stainless steel probes (Accumeasure System 1000; MT Instruments, Latham, N.Y.) are lowered into the apical and basolateral bathing wells to measure the capacitance of the air gap between the probe and fluid meniscus. Fluid transport rate JV (μl·cm^−2·hr^−1) is determined by monitoring the fluid movement-induced changes in the air gap capacitance at the apical and basolateral baths. The probes on both sides of the tissue are backed off from the surface of the Ringer's solution during a bathing solution change.
The capacitance probes are moved away from the bathing reservoirs and fresh control Ringer's solution perfused into the chamber. The fluid transport apparatus also allows continuous monitoring of TEP and RT, but for technical reasons (e.g., solution perfusion rates, TEP/RT sampling rates, and electrode stability) the initial changes in TEP and RT can only be compared to those seen in the electrophysiology experiments. Experiments are continued only if JV, TEP, and RT are not appreciably altered by this control-to-control Ringer's solution change. The water jacketed ? ssing chamber is placed in an incubator to maintain steady-state control over temperature, pCO2, and humidity.
Tissue viability was ascertained by recording transepithelial potential (TEP) and total tissue resistance (RT). It should be noted that the solution composition changes in this chamber were relatively slow (≈1-2 chamber volumes per minute) and the data sampling rate was once per minute, more than two orders of magnitude slower than the sampling rate in the electrophysiology chamber (see below). Therefore it was not possible to record fast changes, in seconds or minutes, in JV, TEP, or RT. After addition of IFNγ to the apical or basal baths, steady-state JV, TEP, and RT were recorded for 20-30 minutes. In control experiments, successive additions of IFNγ were made to test for the repeatability and reversibility of responses.
Effects of MEK inhibitor on human fetal retinal pigment epithelium (hfRPE) were measured following acute and chronic addition of inhibitor. Experiments were performed using hfRPE monolayers grown on semipermeable inserts with media access to apical and basal sides of the epithelium. In different sets of experiments, MEK inhibitor was added to apical, basal, or both sides of hfRPE mounted in modified ? ssing chambers. In chronic experiments hfRPE were pre-treated with 10 μM MEK inhibitor added to apical and basal baths for 24, 48, or 72 hours. For chronic experiments lasting more than 24 hours, transepithelial resistance (TER) was measured daily. Prior to the transfer of the epithelial monolayer to the ? ssing chamber, the TER of whole insert was compared to the TER measured in the ? ssing chamber. This procedure helps confirm the tissue integrity following the transfer from the cell culture insert to the ? ssing chamber. The TER summary data for chronic experiments contains cumulative recordings of TER obtained from inserts and ? ssing chambers.

[2] = system: patients with uveitic cystoid macular edema; assay: Phase I open label trial of topical IFNγ in patients with CME secondary to uveitis; assay type: in vivo, human
Procedure: A phase I open label clinical trial was conducted aimed at investigating the safety and tolerability of topically applied IFN gamma in patients with uveitic cystoid macular edema. To test whether cystoid macular edema (CME), secondary to uveitis, is caused by the disequilibrium of the JAK/STAT and mTor signal transduction pathways in the retinal pigment epithelium (RPE), IFNγ was topically applied in human patients. Five participants with CME secondary to uveitis received a topical ocular instillation of IFNγ in a Phase I, non-randomized, prospective, uncontrolled, dose-escalation, single-center study. The study involved a one-time instillation or series of instillations of IFNγ on the cornea and measurement of a response with optical coherence tomography (OCT) over a three hour period.
A 25% decrease in macular thickness is observed at a post-instillation as compared to baseline. In the study, the first two participants received one instillation (each instillation contains 10 μg in 0.05 mL solution) on the cornea at time zero, the next two participants received two instillations, 10 minutes apart, for a total dosage of 20 and the final participant received three instillations, 10 minutes apart, for a total of 30 μg. OCT was obtained at −60 minutes, −30 minutes and just before the instillation(s). Repeat OCTs were taken at +30 minutes, +60 minutes and +120 minutes. All participants returned for a one-week safety visit.
The primary outcome was the change in central macular thickness as measured by OCT in response to interferon IFNγ as compared with baseline. Secondary outcomes included changes in macular volume as measured by OCT, visual acuity, intraocular pressure, intraocular inflammation and ocular surface irritation assessed by fluorescein staining of the cornea and conjunctiva to assess toxicity. For safety measurements, the following were measured: the presence of ocular surface irritation assessed by fluorescein staining of the cornea and conjunctiva to assess toxicity; the number and severity of systemic and ocular toxicities and adverse events; and the proportion of participants with a visual loss of ≧15 ETDRS letters.
All participants undergo a dilated ophthalmic examination the day of the testing. One eye is chosen as the study eye. The participants receive the evaluation around 12:00 p.m. Participants then have a OCT at −60 minutes, −30 minutes and just before the ocular instillation. The ocular instillation occurs no earlier than 1:00 p.m. Repeat OCT recordings are taken at +30, +60 and +120 minutes after instillation. There is a window of ±15 minutes for each OCT test.
OCT testing is performed with the Cirrus™ high-definition OCT (Carl Zeiss Meditec, Inc.) scanner using a 512×128 scan pattern where a 6×6-mm area on the retina is scanned with 128 horizontal lines, each consisting of 512 A-scans per line (a total of 65,536 sampled points) within a scan time of 2.4 seconds. The scanner automatically focuses on the macula. Data for macular thickness calculations are collected from an array of A-scans distributed across the macular using the macular thickness analysis algorithm. The three pre-instillation measurements are averaged to calculate the baseline macular thickness measurement. Post-instillation OCT macular thickness calculations (+30, +60 and +120 minutes) is compared to the baseline measurement separately. A 25% reduction in central macular thickness is observed in treated patients.
Interferon γ-1b is administered as follows: • 1. Topical tetracaine 1% or proparacaine 0.5% drops are applied to the study eye surface one to two minutes prior to instillation. • 2. The participant applies punctal pressure to his/her […] eye. • 3. The investigator holds the participant's study eye open. • 4. A volume of 0.05 mL of IFNγ is instilled on the center of the study eye's cornea from a tuberculin syringe. • 5. […]

[3] = system: patients with central serious chorioretinopathy; assay: Topical IFN gamma in patients with central serious chorioretinopathy (ongoing trial); assay type: in vivo, human
Description: Topical IFN gamma was also studied in the treatment of serious retinal detachments in patients with central serious chorioretinopathy. […] This occurred during the second week of a two-week course of therapy.

hfRPE monolayers [4] = conditions: IFN-γ in basal bath, increased from 7; Li et al., 2009; cited from earlier work
[5] = system: animal model of retinal-reattachment; conditions: topical addition, cited from earlier work

B1: IFNγ: interferon-γ or, equivalently, interferon-γ1b (CAS number 82115-62-6), pleiotropic cytokine (protein, UniProt P01579 24-161, looked up)
Interferon gamma: QDPYVKEAENLKKYFNAGHSDVADNGTLFLGILKNWKEESDRKIMQSQIVSFYFKLFKNFKDDQSIQKSVETIKEDMNVKFFNSNKKKRDDFEKLTNYSVTDLNVQRKAIHELIQVMAELSPAAKTGKRKRSQMLFRG
normal fluid absorption after MEK inhibitor (hfRPE monolayers [1]): rescue of fluid transport | normal fluid absorption after MEK inhibitor (hfRPE monolayers [1]; listed as IFN-γ): partially restored | restoration of MEK inhibitor-decreased fluid absorption (hfRPE monolayers [1]; IFN-γ added to basolateral bath after chronic 10 μM (72 hours) plus acute apical 100 μM MEK inhibitor): almost completely restored | increase of JV (hfRPE monolayers [1]; IFNγ 5 ng/ml in the basal bath (FIG. 7)): ~8.6 μl·cm−2·hr^−1 | fluid transport across RPE (hfRPE monolayers [1]; IFNγ added to the basal side of hfRPE (FIG. 7)): significantly increase | cell viability as measured by TEP and RT (hfRPE monolayers [1]; IFNγ treatment of hfRPE): did not affect cell viability | rescue of apical MEK inhibitor-induced reduction in fluid absorption (hfRPE monolayers [1]): reverse | rescue of apical MEK inhibitor-induced reduction in fluid absorption (hfRPE monolayers [1]; listed as IFN-γ): almost completely rescued | mean JV after IFNγ (hfRPE monolayers [1]; increased from 12.9±1.6, mean±SEM, p<0.01): 20.5±3.1 μl·cm−2·hr^−1 | ocular surface irritation by slit lamp exam ([2]; 5 patients): no patient developed evidence of ocular surface irritation | serious adverse events ([2]; 5 patients): no serious adverse events | tolerability of drops ([2]; 5 patients, 1-week period): well tolerated | patients reporting irritation or other new ocular complaints ([2]; 5 patients, during 1-week period or beyond): none of the 5 patients | thickness and volume of macular edema by OCT ([2]; most patients): slight (albeit clinically insignificant) decrease | decrease in (central) macular thickness by OCT compared to baseline ([2]; topical instillation 10-30 μg, post-instillation +30, +60, +120 minutes): 25% | resolution of redness after cessation of drops ([3]; both affected patients, no persistent ocular changes): within one day | clinical outcome in serious retinal detachments ([3]; four patients studied so far): some clinical success | painless conjunctival injection with no change in vision ([3]; second week of a two-week course of therapy): two of the four patients | steady state Jv after IFN-γ (hfRPE monolayers [4]): 16 μl·cm−2·hr^−1 | subretinal fluid ([5]; monitored by high resolution OCT): remove fluid from the subretinal space | JAK/STAT pathway [5]: activated
